Experimental data taken from patent publication US20260022171A1.

Experiments:
[1] = target: cynomolgus monkey CD200R1 on cells (cynomolgus monkey); test: flow cytometry, biotinylated antibody on cynomolgus CD4+ T cells (PBMC), streptavidin-PE; concentration not shown
[2] = target: cynomolgus monkey CD200R1 on cells (cynomolgus monkey); test: flow cytometry, biotinylated antibody on cynomolgus CD8+ T cells (PBMC), streptavidin-PE; concentration not shown
[3] = target: human CD200R1 on cells (human) (UniProt Q8TD46); test: cell-based or functional assay
[4] = target: human CD200R1 on cells (human) (UniProt Q8TD46); test: flow cytometry, blocking: U937 cells stably expressing hu-CD200R1 incubated with the antibody, then with 55 nM huCD200-Fc-Flag, detected with anti-Flag PE (MFI)

Chain of hu-CD200-Fc (Fc fusion) (chain): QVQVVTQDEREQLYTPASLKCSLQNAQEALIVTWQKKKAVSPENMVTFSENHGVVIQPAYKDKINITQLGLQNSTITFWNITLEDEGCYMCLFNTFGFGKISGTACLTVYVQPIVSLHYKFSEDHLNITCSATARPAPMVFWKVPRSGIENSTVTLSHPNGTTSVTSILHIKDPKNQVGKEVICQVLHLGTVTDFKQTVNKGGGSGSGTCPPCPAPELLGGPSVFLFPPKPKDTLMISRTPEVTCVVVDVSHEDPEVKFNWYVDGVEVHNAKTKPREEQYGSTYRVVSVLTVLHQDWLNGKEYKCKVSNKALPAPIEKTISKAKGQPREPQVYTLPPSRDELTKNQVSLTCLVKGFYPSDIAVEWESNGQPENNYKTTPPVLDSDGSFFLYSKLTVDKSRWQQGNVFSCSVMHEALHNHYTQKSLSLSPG

Substance | Mean:Comp-FL2-A [1] | Mean:Comp-FL2-A [2] | pDok2 induction, western blot, U937 cells expressing CD200R1 [3] [nM] | IC50 [4] [nM]
IgG Control (antibody) | 403 | 411 | – | –
OX108 (commercial anti-CD200R1 antibody) | 566 | 425 | 33 | 2.8
hu-CD200-Fc (Fc fusion) | – | – | 200 | –
